Source: patent US20230143294A1 (SYNBIO TECHNOLOGIES, published 2023)
Substitutions are numbered along the chain they refer to.

B1: Antibody I-HX-2 (antibody, human IgG4 S228P, kappa, V domains shown)
VH: VQLVQSGAEVKKPGASVKVSCKASGYSFTSYWMHWVRQAPGQGLEWMGAIYPGNSDTSYNQKFKGRVTITAVTSASTAYMELSSLRSEDTAVYYCTRWGDGYYHAMDHWGQGTLVTVSS
VL: DIQMTQSPSSLSASVGDRVTITCRASQDIGNTLNWLQQKPGKAIKRLIYATSSLDSGVPKRFSGSRSGSDYSLTISSLQPEDFATYYCLQYASSPFTFGQGTKLEIKR
notes: also called antibody I sample; candidate antibody I sample
B2: Antibody I-HX-8 (antibody, human IgG4 S228P, kappa, V domains shown)
VH: VQLVQSGAEVKKPGASVKVSCKASGYSFTTYWMHWVRQAPGQGLEWMGAIYPVHSETSYNQKFKGRVTITAVTSASTAYMELSSLRSEDTAVYYCTHWIEAFFHLMQHWGQGTLVTVSS
VL: B1 VL with D28N, N31Q, A50S
B3: Antibody I-HX-5 (antibody, human IgG4 S228P, kappa, V domains shown)
VH: B2 VH with S27T, T30S, P52W, V53A, I99L, A101V, F102Y, L105G, Q107D
VL: B1 VL with D28N, I29G, G30I, A50V, Q90Y, S94Y, P95F
B4: Antibody I-HX-4 (antibody, human IgG4 S228P, kappa, V domains shown)
VH: VQLVQSGAEVKKPGASVKVSCKASGYTYNFYWMHWVRQAPGQGLEWMGAIYHVQSDTSYNQKFKGRVTITAVTSASTAYMELSSLRSEDTAVYYCTHWLEVYFHGMDHWGQGTLVTVSS
VL: B1 VL with D28E, N31Q, A50V, Q90Y, Y91F
B5: Antibody I-HX-3 (antibody, human IgG4 S228P, kappa, V domains shown)
VH: B4 VH with N29Y, V53G, Q54N, D56E, L99A, E100D, V101A, D107N
VL: B1 VL with D28N, G30A, A50V, T51S, Q90Y, S94Y, P95F
B6: Antibody I-HX-1 (antibody, human IgG4 S228P, kappa, V domains shown)
VH: B1 VH with F28Y, T29Y, S30F, P52H, G53I, D100E, D107N
VL: B1 VL with I29L, T51S, Q90Y, S94T
notes: expressed in HEK 293 or CHO cells
B7: Antibody I-HX-6 (antibody, human IgG4 S228P, kappa, V domains shown)
VH: B1 VH with T29S, N54Q, D56E, R97H, G99I, Y103F, A105V
VL: B1 VL with D28E, N31Q, A50G, Q90N, A92I
B8: Antibody I-HX-7 (antibody, human IgG4 S228P, kappa, V domains shown)
VH: B1 VH with S30T, P52W, G53A, N54H, D56E
VL: B1 VL with D28E, N31Q, Q90Y, S94T
B9: Antibody II-HX-15 (antibody, human IgG4 S228P, kappa, V domains shown)
VH: VQLVQSGAEVKKPGASVKVSCKASGYTFTSYVMHWVRQAPGQGLEWMGYINPYNDGTKYNEKFKGRVTITSDKSASTAYMELSSLRSEDTAVYYCAWSGAIFEYWGQGTLVTVSS
VL: TQSPSFLSASVGDRVTITCSASSSVSYMHWFQQKPGKSPKLWIYSTSNLASGVPARFSGSGSGTSYSLTISSLQPEDFATYYCQQRSSYPYTFGQGTKLEIKR
notes: also called antibody II sample; candidate antibody II sample
B10: Antibody II-HX-17 (antibody, human IgG4 S228P, kappa, V domains shown)
VH: VQLVQSGAEVKKPGASVKVSCKASGYFFSSFVMHWVRQAPGQGLEWMGYINHFQDATKYNEKFKGRVTITSDKSASTAYMELSSLRSEDTAVYYCARSVGITDYWGQGTLVTVSS
VL: B9 VL with S24T, S26Y, T46Y, P90H
B11: Antibody II-HX-11 (antibody, human IgG4 S228P, kappa, V domains shown)
VH: VQLVQSGAEVKKPGASVKVSCKASGYYTSSPVMHWVRQAPGQGLEWMGYINYFYDGTKYNEKFKGRVTITSDKSASTAYMELSSLRSEDTAVYYCAKSAIAFEYWGQGTLVTVSS
VL: B9 VL with S24T, S26Y, Q85Y, P90W
B12: Antibody II-HX-14 (antibody, human IgG4 S228P, kappa, V domains shown)
VH: B10 VH with H52Y, F53Y, Q54N, V99A, G100A, I101L, T102S, D103E
VL: B9 VL with S24T, V25I, S26T, S45Y, Q85N, S87T, Y89F, P90H
B13: Antibody II-HX-10 (antibody, human IgG4 S228P, kappa, V domains shown)
VH: B9 VH with T27S, F28T, T29S, Y31F, P52Y, G56A
VL: B9 VL with T46Y, Q85N, S87T, Y89F, P90H
B14: Antibody II-HX-16 (antibody, human IgG4 S228P, kappa, V domains shown)
VH: B9 VH with T27F, F28Y, Y53F, N54Q, G56I, G99A, I101L, F102S
VL: B9 VL with Q85N, S87Y
B15: Antibody II-HX-19 (antibody, human IgG4 S228P, kappa, V domains shown)
VH: B9 VH with T27Y, F28T, P52H, Y53F, N54Q, G56A
VL: B9 VL with V25G, S26Y, S45T
B16: Antibody II-HX-13 (antibody, human IgG4 S228P, kappa, V domains shown)
VH: B9 VH with T27S, W97R, G99I, A100G, F102T, E103D
VL: B9 VL with V25I, Y89F
B17: Antibody II-HX-18 (antibody, human IgG4 S228P, kappa, V domains shown)
VH: B9 VH with T27Y, F28T, T29S, Y31P, W97K, A100G, F102S, E103D
VL: B9 VL with V25A, T46Y, Q85Y, S87T

Molecular target: T1, human PD-L1 antigen (Beijing Sino Biological Inc, Catalog No. #10084-H08H-100) (human, UniProt Q9NZQ7 19-239)
T1 construct: Bought antigen; also called the antigen
Experiment: BLI (ForteBIO Octet), antibody captured on sensor, human PD-L1 in solution

T1 sequence (Q9NZQ7 19-239 limits assumed): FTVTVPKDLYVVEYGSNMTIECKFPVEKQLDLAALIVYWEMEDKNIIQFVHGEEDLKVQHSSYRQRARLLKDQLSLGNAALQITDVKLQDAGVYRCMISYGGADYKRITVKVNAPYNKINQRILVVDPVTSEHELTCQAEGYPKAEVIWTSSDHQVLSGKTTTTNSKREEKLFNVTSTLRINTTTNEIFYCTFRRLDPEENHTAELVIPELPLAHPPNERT

Kd	koff	kon	Binder
0.0291 nM	2.7e-07 s⁻¹	9280 M⁻¹ s⁻¹	B1
0.259 nM	1.81e-06 s⁻¹	6990 M⁻¹ s⁻¹	B2
0.459 nM	3.27e-06 s⁻¹	7120 M⁻¹ s⁻¹	B3
0.11 nM	8.95e-07 s⁻¹	8100 M⁻¹ s⁻¹	B4
0.271 nM	1.92e-06 s⁻¹	7080 M⁻¹ s⁻¹	B5
0.046 nM	4.1e-07 s⁻¹	8920 M⁻¹ s⁻¹	B6
0.0481 nM	4.29e-07 s⁻¹	8930 M⁻¹ s⁻¹	B7
0.047 nM	4.27e-07 s⁻¹	9090 M⁻¹ s⁻¹	B8

Molecular target: T1, human PD-L1 antigen (Beijing Sino …)
Experiment: as above
Remark: another data set of the same source

Kd	koff	kon	Binder
0.149 nM	5.6e-07 s⁻¹	3760 M⁻¹ s⁻¹	B9
1.82 nM	4.92e-06 s⁻¹	2710 M⁻¹ s⁻¹	B10
2.8 nM	7.71e-06 s⁻¹	2750 M⁻¹ s⁻¹	B11
3.19 nM	9.55e-06 s⁻¹	2990 M⁻¹ s⁻¹	B12
3.67 nM	9.2e-06 s⁻¹	2510 M⁻¹ s⁻¹	B13
3.71 nM	9.19e-06 s⁻¹	2500 M⁻¹ s⁻¹	B14
1.23 nM	3.75e-06 s⁻¹	3040 M⁻¹ s⁻¹	B15
0.707 nM	2.13e-06 s⁻¹	3010 M⁻¹ s⁻¹	B16
0.624 nM	1.92e-06 s⁻¹	3080 M⁻¹ s⁻¹	B17
